Consider one substance from publication PMC9780815.

This assay deals with GFP-BMB1 (Hibiscus green spot virus). The assay can be described thus: FRET or BRET. Background: Bioluminescence resonance energy transfer reports proximity on the nanometre scale.

For the substance BMB2-mRFP (natural protein), the FRET efficiency turned out to be 36% and the reduction of the GFP excited-state lifetime (FLIM) against the controls came out at 0.9 ns.
